Measured values taken from patent US20140242072A1, “ANTI-ICAM-1 ANTIBODIES TO TREAT MULTIPLE-MYELOMA RELATED DISORDERS” (BIOINVENT INTERNATIONAL AB, priority 2011, published 2014).

Experiments:
[1] = target: T1, ICAM-1 (BI-AB epitope) on cells from multiple-myeloma-related disorders (Homo sapiens, UniProt P05362); test: BI-AB epitope expression on bone marrow cells of patients with multiple-myeloma-related disorders by flow cytometry; type: binding; details: FACS
T1 construct: endogenous in cells; host or cells: primary bone marrow cells (plasma cells) from patients with plasmacytoma, plasma cell leukemia or light chain amyloidosis
Description: FIG. 1: BI-AB epitope expression in a cohort of patients with plasma cell disorders, consecutively analysed at Lund University Hospital, Sweden. • Pat no (Patient number); M (male); F (female); Ig (immunoglobulin class of M-component); M comp (monoclonal Ig component in serum); Skel. destr (number of skeletal destruction as measured by X-ray); n/a (not available); MM-cells (cells from multiple-myeloma-related disorders counted as % of all nucleated cells in bone marrow smears); ISS (International Staging System of MM); T (number of different MM treatment regimes before BI-AB analysis); Diagnosis; AL (amyloid light chain amyloidosis); PCL (plasma cell leukemia); PC (plasmacytoma); Expression level (BI-AB epitope expression level measured by FACS on cells from multiple-myeloma-related disorders: +++ (very highly positive), ++ (highly positive), + (positive) or − (negative); Positive MM cells (BI-AB epitope positive cells from multiple-myeloma-related disorders as measured by FACS).
We evaluated expression of the BI-AB epitope on bone marrow cells in patients with multiple-myeloma-related disorders (plasmacytoma, plasma cell leukemia, and light chain amyloidosis) by flow cytometry (FIG. 1).
Cells from multiple-myeloma-related disorders were identified using fluorescent antibodies against the following surface antigens CD38, CD138, CD45 and CD56 according to European Myeloma Network guidelines on multiparametric flow cytometry in MM (Rawstron et al., 2008) and confirming monoclonal cells from multiple-myeloma-related disorders with intracellular staining of lambda and kappa light chains.

[2] = target: T2, Intercellular Adhesion Molecule-1 (ICAM-1) (human, UniProt P05362 28-532); test: flow cytometry (FACS) on bone marrow plasma cells of patients with PC, PCL or AL
T2 construct: whole, on cells; Endogenous ICAM-1 on primary patient cells; also called CD54
T2 sequence (P05362 28-532): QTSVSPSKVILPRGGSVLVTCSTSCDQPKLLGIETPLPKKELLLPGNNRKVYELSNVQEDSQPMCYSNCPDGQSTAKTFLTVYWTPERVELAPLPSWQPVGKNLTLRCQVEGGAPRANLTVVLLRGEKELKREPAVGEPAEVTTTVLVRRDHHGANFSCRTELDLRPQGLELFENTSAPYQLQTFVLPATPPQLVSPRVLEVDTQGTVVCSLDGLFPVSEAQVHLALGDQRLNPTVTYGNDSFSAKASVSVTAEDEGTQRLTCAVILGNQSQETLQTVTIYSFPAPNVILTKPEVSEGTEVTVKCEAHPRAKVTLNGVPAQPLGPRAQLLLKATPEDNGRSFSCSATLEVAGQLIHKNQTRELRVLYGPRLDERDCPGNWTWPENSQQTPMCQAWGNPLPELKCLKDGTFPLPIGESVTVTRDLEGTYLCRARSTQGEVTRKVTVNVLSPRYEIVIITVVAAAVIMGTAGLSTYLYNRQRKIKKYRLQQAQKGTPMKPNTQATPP

T1 sequence (P05362 28-532): as above

- median BI-AB epitope expression level relative to normal B cells from the same patients ([1]; cells from multiple-myeloma-related disorders vs normal B cells): 10 times higher
- BI-AB epitope expression level on cells from multiple-myeloma-related disorders ([1]; patient bone marrow cells): very highly expressed
- binding result [2]: binds
B1: BI-AB antibody (antibody, V domains shown)
VH: EVQLLESGGGLVQPGGSLRLSCAASGFTFSNAWMSWVRQAPGKGLEWVAFIWYDGSNKYYADSVKGRFTISRDNSKNTLYLQMNSLRAEDTAVYYCARYSGWYFDYWGQGTLVTVSS
VL: QSVLTQPPSASGTPGQRVTISCTGSSSNIGAGYDVHWYQQLPGTAPKLLIYDNNNRPSGVPDRFSGSKSGTSASLAISGLRSEDEADYYCQSYDSSLSAWLFGGGTKLTVLG
notes: It says the antibody was described previously in WO 2007/112110; also called exemplary antibody of the invention
- BI-AB epitope positive cells from multiple-myeloma-related disorders ([1]; all patients with plasmacytoma, plasma cell leukemia or light chain amyloidosis): expressed the BI-AB epitope on most cells
